Here are results for two proteins from patent US20200330553A1 (BRIGHAM AND WOMEN S HOSPITAL, published 2020).

Data set [1] deals with the molecule itself. Kind of data set: MG-132, anti-FLAG immunoprecipitation, non-reducing western blot. The method, then: FLAG-sortilin Full and ECD+TMD forms homodimers and multimers. Empty vector was used as control. […] MG-132 increased FLAG-sortilin ICD+TMD in a time and concentration-dependent manner. […] Monomers, homodimers and multimers are abbreviated as MO, D and MU, respectively. IB, immunoblotting.
Cells or EVs were lysed in IP lysis buffer. Anti-FLAG M2 antibody (5 μg) or mouse IgG (5 lig, R&D Systems, Cat#MAB002, Lot# IX2415091) were incubated with Dynabeads with Protein G (Thermo Fisher Scientific Inc., Cat#10004D) by rotation for overnight at 4° C. Cell lysate was incubated for 4 hours at 4° C. under rotating conditions. The bead-antibody-protein complex was washed with PBS 3 times. Then, Laemmli buffer was added to the precipitates for SDS-PAGE.
For orientation: A western blot detects proteins with antibodies after separation by electrophoresis.

Data set [2] deals with the molecule itself. Description: non-reducing western blot, HEK293 cells and EVs. The text has this:
Next, the intermolecular disulfide bond was examined in the intracellular domain. Since sortilin has only one cysteine (Cys⁷⁸³) in the intracellular domain, the cysteine was expected to form an intermolecular disulfide bond for dimerization in the intracellular domain. Cys⁷⁸³ was replaced by alanine (C783A) in 6×His-sortilin ICD+TMD and FLAG-sortilin Full (FIG. 5A). […] The homodimers of low molecular weight were mainly transported to EVs, while homodimers of high molecular weight and multimers were mainly not transported to EVs (FIG. 5D). […] Since Cys⁷⁸³ was reported to be palmitoylated (22), the connection between palmitoylation and intermolecular disulfide bond was studied by incubating FLAG-sortilin HEK293 cells with an inhibitor of palmitoylation, 2-fluoropalmitic acid (2-FPA) (22), which increased only homodimers of lower molecular size in the cells (FIG. 5E).
Cells, EVs and the supernatant of culture medium were lysed with IP lysis buffer (Thermo Fisher Scientific Inc., Cat#87787) containing protease inhibitor (Roche Diagnostics, Cat#04693159001). Protein concentration was measured using the bicinchoninic acid (BCA) method (Thermo Fisher Scientific Inc., Cat#23225). Laemmli buffer (Boston Bioproduct; non-reducing, Cat#BP-110NR; reducing, Cat#BP-111R) was added to the lysate, and boiled at 95° C. for 5 minutes.

B1: FLAG-sortilin ICD+TMD (receptor)
chain: SAPDYKDDDDKNSVPIILAIVGLMLVTVVAGVLIVKKYVCGGRFLVHRYSVLQQHAEANGVDGVDALDTASHTNKSGYHDDSDEDLLE
notes: written as the form after propeptide cleavage
As to B1, in data set [1], the binding result is given as “binds”.

B2: FLAG-sortilin C783A (receptor)
chain: SAPDYKDDDDKGEDEECGRVRDFVAKLANNTHQHVFDDLRGSVSLSWVGDSTGVILVLTTFHVPLVIMTFGQSKLYRSEDYGKNFKDITDLINNTFIRTEFGMAIGPENSGKVVLTAEVSGGSRGGRIFRSSDFAKNFVQTDLPFHPLTQMMYSPQNSDYLLALSTENGLWVSKNFGGKWEEIHKAVCLAKWGSDNTIFFTTYANGSCKADLGALELWRTSDLGKSFKTIGVKIYSFGLGGRFLFASVMADKDTTRRIHVSTDQGDTWSMAQLPSVGQEQFYSILAANDDMVFMHVDEPGDTGFGTIFTSDDRGIVYSKSLDRHLYTTTGGETDFTNVTSLRGVYITSVLSEDNSIQTMITFDQGGRWTHLRKPENSECDATAKNKNECSLHIHASYSISQKLNVPMAPLSEPNAVGIVIAHGSVGDAISVMVPDVYISDDGGYSWTKMLEGPHYYTILDSGGIIVAIEHSSRPINVIKFSTDEGQCWQTYTFTRDPIYFTGLASEPGARSMNISIWGFTESFLTSQWVSYTIDFKDILERNCEEKDYTIWLAHSTDPEDYEDGCILGYKEQFLRLRKSSMCQNGRDYVVTKQPSICLCSLEDFLCDFGYYRPENDSKCVEQPELKGHDLEFCLYGREEHLTTNGYRKIPGDKCQGGVNPVREVKDLKKKCTSNFLSPEKQNSKSNSVPIILAIVGLMLVTVVAGVLIVKKYVAGGRFLVHRYSVLQQHAEANGVDGVDALDTASHTNKSGYHDDSDEDLLE
notes: also called C783A mutant
Turning to B2, in data set [2], the binding result is given as “binds”.
